The source of these data is patent publication US10087225B2, “Formulation of MK2 inhibitor peptides” (MOERAE MATRIX, INC., priority 2015, dated 2018).

Broadly, the viability is the share of living cells, or the viability signal relative to a control. A high value points to less harm to the cells.

The nature of data set [1]: Cytotoxicity assay (CytoTox-ONE). To be noted: human, HCAVSMCs.
Protocol: 200 μL of cell suspension (at 10,000 cells/well) were seeded onto 96-well plates to yield an approximate 70% confluence per well. Cells were allowed to adhere to the plate overnight. […] Treatments were subsequently removed and the cells were cultured in fresh complete growth medium for 24 hours. Cells were then washed 2× with PBS +/+ and cell viability was then determined by a CytoTox-ONE Homogenous Membrane Integrity assay (Promega) according to the manufacturer's protocol. Briefly, 100 μL of Ambion KDalert Lysis Buffer was added to each well, and then 100 μL of freshly prepared CytoTox-ONE reagent was added to each well. After 10 minutes of incubation, 50 μL of stop solution was added, and the fluorescence of each well (kλex=560 nm, λem, =590 nm) was determined with a TECAN Infinite M1000 Pro plate reader.
Data set [2] addresses JNK1α1(h) (Homo sapiens, UniProt P45983). In words: Kinase Profiling Assay. The format is biochemical.
Data set [3] deals with SIK(h) (Homo sapiens, UniProt P57059). The data set can be described thus: Kinase Profiling Assay. The format is biochemical. To be noted: 100 μM.
The target of data set [4] is EGFR(T790M)(h) (Homo sapiens, UniProt P00533, T790M). In words: Kinase Profiling Assay. It counts as biochemical. To be noted: 100 μM.
Data set [5] concerns the target T1, EphA1(h) (Homo sapiens, UniProt P21709).
T1 sequence (P21709 26-976): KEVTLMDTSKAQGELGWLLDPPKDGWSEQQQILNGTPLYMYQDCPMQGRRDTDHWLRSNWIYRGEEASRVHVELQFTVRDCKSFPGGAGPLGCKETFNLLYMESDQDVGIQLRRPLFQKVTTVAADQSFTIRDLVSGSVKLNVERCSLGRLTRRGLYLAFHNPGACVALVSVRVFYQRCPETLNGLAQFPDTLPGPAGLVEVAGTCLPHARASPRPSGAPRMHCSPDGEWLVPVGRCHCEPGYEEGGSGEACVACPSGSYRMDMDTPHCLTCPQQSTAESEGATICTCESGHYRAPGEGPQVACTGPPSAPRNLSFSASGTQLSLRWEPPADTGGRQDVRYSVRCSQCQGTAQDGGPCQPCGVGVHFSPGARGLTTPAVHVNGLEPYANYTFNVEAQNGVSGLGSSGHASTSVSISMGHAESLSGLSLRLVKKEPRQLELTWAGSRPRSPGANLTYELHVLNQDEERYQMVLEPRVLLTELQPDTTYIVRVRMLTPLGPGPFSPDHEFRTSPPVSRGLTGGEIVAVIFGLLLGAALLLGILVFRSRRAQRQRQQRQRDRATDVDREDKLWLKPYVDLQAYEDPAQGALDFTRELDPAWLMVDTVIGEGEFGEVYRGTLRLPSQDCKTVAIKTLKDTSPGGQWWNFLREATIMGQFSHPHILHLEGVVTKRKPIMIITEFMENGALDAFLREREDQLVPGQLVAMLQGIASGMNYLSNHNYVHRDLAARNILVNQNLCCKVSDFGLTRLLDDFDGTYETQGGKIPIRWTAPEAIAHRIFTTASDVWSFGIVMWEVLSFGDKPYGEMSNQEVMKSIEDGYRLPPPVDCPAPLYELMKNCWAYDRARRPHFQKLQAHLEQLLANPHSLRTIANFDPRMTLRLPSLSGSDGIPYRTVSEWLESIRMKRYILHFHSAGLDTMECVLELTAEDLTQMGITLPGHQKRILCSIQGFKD
The data set can be described thus: Kinase Profiling Assay. The format is biochemical. To be noted: 100 μM.

Data set [6] concerns the target Ab1(M351T)(h) (Homo sapiens, UniProt P00519, M351T). The data set can be described thus: Kinase Profiling Assay. It counts as biochemical. To be noted: 100 μM.
The target in data set [7] is eEF-2K(h) (Homo sapiens, UniProt O00418). The data set can be described thus: Kinase Profiling Assay. It counts as biochemical. Particulars: 100 μM.
Data set [8] deals with Ab1(h) (Homo sapiens, UniProt P00519). In words: Kinase Profiling Assay. The format is biochemical. Particulars: 100 μM.
For data set [9], the target named is PKBγ(h) (Homo sapiens, UniProt Q9Y243). The data set can be described thus: Kinase Profiling Assay. The format is biochemical. To be noted: 100 μM.
Data set [10] concerns the target JNK2α2(h) (Homo sapiens, UniProt P45984). In words: Kinase Profiling Assay. Particulars: 100 μM. It counts as biochemical.
In data set [11] the target is MRCKβ(h) (Homo sapiens, UniProt Q9Y5S2). The data set can be described thus: Kinase Profiling Assay. Particulars: 100 μM. It counts as biochemical.
The target in data set [12] is T2, SGK2(h) (Homo sapiens, UniProt Q9HBY8).
T2 sequence (Q9HBY8 1-367): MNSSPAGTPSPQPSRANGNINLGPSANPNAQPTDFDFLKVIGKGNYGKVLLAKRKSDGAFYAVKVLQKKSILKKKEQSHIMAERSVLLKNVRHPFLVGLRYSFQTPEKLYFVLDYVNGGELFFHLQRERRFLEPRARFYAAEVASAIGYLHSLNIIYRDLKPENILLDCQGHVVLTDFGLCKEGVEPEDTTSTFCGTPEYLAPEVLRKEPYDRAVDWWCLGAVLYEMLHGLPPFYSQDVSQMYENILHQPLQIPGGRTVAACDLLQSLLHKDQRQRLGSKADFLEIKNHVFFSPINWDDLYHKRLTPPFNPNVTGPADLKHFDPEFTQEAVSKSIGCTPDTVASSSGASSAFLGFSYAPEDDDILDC
The data set can be described thus: Kinase Profiling Assay. Particulars: 100 μM. It counts as biochemical.

In data set [13] the target is GSK3α(h) (Homo sapiens, UniProt P49840). In words: Kinase Profiling Assay. To be noted: 100 μM. It counts as biochemical.
Data set [14] has as its target Ab1(Y253F)(h) (Homo sapiens, UniProt P00519, Y253F). In words: Kinase Profiling Assay. The format is biochemical. Particulars: 100 μM.
Data set [15] addresses T3, Aurora-A(h) (Homo sapiens, UniProt O14965).
T3 sequence (O14965 1-403): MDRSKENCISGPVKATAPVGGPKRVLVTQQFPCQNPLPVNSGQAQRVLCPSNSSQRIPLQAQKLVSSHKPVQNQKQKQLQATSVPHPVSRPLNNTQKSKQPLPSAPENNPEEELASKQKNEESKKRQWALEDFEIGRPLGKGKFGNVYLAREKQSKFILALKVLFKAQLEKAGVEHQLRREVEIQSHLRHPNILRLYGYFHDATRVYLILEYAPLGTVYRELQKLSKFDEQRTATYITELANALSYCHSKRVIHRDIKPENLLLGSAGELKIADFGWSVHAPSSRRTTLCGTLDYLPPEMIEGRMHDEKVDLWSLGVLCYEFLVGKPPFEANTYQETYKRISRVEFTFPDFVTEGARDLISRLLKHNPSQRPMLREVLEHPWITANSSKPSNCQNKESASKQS
In words: Kinase Profiling Assay. To be noted: 100 μM. The format is biochemical.

Data set [16] has as its target CK1γ1(h) (Homo sapiens, UniProt Q9HCP0). In words: Kinase Profiling Assay. The format is biochemical. Particulars: 100 μM.
The target of data set [17] is PAK3(h) (Homo sapiens, UniProt O75914). The data set can be described thus: Kinase Profiling Assay. The format is biochemical. To be noted: 100 μM.
For data set [18], the target named is Tie2(R849W)(h) (Homo sapiens, UniProt Q02763, R849W). The data set can be described thus: Kinase Profiling Assay. Particulars: 100 μM. It counts as biochemical.
Data set [19] has as its target EphA2(h) (Homo sapiens, UniProt P29317). The data set can be described thus: Kinase Profiling Assay. It counts as biochemical. To be noted: 100 μM.

Chain of PAK3(h) (O75914 whole entry): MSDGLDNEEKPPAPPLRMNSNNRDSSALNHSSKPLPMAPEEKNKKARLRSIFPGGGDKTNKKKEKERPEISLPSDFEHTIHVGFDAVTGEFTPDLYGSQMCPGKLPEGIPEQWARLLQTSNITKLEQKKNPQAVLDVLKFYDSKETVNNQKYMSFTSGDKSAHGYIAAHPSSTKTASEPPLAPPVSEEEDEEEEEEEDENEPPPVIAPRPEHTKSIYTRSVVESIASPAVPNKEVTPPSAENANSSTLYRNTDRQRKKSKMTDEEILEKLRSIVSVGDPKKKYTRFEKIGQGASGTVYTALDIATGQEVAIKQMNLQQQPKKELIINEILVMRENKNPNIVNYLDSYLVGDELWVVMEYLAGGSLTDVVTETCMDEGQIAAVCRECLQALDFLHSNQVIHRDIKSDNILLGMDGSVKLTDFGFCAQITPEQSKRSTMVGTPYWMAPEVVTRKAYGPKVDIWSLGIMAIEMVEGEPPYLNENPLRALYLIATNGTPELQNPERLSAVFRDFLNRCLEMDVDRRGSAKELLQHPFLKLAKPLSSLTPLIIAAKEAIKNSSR
Chain of CK1γ1(h) (Q9HCP0 whole entry): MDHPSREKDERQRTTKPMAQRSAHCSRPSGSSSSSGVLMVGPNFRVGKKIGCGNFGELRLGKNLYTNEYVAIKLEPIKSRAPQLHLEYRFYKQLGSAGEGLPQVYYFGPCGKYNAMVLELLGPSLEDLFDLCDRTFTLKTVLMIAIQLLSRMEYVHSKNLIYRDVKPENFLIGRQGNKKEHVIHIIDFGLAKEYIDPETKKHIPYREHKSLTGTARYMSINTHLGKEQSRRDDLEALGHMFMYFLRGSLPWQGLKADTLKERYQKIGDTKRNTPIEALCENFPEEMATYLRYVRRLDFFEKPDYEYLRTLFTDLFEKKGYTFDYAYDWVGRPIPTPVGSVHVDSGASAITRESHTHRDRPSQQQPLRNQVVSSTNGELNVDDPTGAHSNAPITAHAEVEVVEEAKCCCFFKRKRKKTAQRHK
Chain of Tie2(R849W)(h) (Q02763 23-1124 R849W): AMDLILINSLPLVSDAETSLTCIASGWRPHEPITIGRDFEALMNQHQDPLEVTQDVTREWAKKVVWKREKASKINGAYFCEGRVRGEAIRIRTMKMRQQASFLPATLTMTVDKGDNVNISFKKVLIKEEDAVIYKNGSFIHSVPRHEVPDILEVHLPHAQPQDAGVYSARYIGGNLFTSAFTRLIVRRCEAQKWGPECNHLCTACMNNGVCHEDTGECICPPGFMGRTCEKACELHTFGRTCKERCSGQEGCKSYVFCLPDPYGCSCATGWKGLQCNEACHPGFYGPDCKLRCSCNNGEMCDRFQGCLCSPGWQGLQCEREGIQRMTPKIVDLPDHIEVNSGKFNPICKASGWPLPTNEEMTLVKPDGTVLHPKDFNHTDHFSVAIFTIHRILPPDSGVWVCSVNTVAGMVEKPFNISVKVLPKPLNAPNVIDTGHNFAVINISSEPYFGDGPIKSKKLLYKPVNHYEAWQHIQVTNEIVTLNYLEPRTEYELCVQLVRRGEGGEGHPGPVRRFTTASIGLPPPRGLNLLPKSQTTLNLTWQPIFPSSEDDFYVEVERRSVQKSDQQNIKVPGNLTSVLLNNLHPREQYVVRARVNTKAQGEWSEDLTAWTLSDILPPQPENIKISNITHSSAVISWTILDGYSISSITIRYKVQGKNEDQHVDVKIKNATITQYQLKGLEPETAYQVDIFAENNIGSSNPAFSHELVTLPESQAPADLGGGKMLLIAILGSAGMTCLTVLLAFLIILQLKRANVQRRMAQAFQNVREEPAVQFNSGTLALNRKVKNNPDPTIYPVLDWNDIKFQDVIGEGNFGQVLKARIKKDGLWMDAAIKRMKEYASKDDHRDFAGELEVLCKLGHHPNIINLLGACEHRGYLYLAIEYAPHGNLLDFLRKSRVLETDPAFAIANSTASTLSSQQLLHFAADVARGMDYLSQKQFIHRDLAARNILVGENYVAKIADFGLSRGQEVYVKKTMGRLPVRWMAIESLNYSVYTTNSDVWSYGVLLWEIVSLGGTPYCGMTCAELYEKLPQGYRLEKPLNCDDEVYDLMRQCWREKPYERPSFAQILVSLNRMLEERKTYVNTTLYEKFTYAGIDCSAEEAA
Chain of PKBγ(h) (Q9Y243 whole entry): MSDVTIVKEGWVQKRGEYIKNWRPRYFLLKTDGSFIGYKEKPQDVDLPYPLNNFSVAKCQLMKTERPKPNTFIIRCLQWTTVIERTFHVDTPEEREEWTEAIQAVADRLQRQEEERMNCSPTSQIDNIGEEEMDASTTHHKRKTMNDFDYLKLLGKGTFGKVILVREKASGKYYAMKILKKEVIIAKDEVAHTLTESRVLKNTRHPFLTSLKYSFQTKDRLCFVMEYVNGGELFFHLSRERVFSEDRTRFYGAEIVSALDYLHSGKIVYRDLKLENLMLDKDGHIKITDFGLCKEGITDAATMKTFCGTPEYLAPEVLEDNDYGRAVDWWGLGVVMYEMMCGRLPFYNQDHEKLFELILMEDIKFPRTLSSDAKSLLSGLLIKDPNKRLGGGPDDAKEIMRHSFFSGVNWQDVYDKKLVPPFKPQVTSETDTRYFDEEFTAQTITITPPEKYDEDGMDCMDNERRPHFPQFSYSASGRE
Chain of MRCKβ(h) (Q9Y5S2 whole entry): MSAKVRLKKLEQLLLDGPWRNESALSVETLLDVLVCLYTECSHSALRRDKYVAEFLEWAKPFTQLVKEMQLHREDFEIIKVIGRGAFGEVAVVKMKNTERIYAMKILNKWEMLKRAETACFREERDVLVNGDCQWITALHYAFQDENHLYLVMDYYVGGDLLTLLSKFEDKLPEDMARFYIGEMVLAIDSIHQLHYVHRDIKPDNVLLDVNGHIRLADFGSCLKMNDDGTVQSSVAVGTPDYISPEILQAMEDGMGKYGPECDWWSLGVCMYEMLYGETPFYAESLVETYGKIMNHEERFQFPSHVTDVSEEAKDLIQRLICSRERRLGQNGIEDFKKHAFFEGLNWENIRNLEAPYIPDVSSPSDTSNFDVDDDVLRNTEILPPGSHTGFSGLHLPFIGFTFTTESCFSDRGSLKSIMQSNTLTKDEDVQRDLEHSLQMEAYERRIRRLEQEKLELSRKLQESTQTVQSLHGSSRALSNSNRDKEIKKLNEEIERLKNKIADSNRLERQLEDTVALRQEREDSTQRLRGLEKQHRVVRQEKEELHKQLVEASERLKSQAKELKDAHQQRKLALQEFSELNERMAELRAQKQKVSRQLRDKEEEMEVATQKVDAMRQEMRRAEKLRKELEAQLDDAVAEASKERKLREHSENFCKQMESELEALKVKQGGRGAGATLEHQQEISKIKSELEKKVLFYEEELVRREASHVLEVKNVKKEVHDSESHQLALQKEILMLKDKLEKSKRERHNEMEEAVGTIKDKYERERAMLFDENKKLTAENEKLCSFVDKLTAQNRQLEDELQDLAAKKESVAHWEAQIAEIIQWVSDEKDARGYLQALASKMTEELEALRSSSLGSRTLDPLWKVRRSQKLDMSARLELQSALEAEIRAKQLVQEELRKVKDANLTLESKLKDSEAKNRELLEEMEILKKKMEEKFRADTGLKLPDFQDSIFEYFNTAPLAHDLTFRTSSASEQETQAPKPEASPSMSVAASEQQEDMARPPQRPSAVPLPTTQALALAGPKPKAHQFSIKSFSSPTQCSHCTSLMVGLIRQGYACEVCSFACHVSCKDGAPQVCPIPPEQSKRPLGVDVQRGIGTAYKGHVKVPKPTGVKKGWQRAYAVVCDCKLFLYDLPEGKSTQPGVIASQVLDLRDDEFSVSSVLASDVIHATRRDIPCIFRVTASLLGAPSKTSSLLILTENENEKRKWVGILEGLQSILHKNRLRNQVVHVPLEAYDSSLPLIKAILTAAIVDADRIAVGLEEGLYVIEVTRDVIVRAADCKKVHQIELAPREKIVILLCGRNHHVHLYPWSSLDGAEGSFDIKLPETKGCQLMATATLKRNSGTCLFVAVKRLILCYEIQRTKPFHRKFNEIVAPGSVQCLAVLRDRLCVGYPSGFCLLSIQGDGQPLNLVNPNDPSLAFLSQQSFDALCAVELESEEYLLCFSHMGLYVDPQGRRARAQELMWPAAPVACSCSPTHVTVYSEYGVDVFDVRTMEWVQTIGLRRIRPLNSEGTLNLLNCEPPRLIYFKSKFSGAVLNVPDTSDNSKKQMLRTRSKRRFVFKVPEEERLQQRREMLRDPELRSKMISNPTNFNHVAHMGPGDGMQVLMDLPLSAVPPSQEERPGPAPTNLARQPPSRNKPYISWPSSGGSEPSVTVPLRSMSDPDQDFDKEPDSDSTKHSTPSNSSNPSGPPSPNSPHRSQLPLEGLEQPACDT
Chain of JNK1α1(h) (P45983 1-384 isoform P45983-2): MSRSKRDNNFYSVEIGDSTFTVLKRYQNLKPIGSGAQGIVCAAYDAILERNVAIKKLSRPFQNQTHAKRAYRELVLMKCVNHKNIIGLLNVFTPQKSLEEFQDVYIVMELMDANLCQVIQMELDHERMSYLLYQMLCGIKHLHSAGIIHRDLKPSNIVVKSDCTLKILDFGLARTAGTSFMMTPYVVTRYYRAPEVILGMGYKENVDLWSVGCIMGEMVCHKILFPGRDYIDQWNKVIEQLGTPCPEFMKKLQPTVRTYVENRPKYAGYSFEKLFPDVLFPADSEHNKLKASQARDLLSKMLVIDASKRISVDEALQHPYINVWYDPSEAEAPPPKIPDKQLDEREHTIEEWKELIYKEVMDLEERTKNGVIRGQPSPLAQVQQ

Turning to H-YARAAARQARAKALARQLGVAA-OH [MMI-0100], in [1], the viability at 2 h, 500 µM was found to be 76%. In addition, the activity at 100 µM in [2] was 91%.

With “HRRIKAWLKKIKALARQLGVAA (Mammalian) [MMI-0500]”, the “% activity” value is listed as 40% in [3]; 70% in [4]; 40% in [5]; 61% in [6]; 43% in [7]; 16% in data set [8]. For the same substance, the “% activity” value is reported as 20% in [9]; 81% in data set [10]; -10% in data set [11]; -1% in [12]; 175% in data set [13]; 29% in [14]. In addition, in data set [15], the “% activity” value is 110%.

Consider “YARAAARQARAKALNRQLGVA (Mammalian) [MMI-0200]”, for which the “% activity” value in data set [16] was 98%; in data set [17], 50%; in data set [18], 89%; in [19], 95%.
